Experimental data as given in article PMC11143242 (2024).

Key:
Experiment in all cases: SPR
[1] = biological target: T1, CPXV CPXV199 (cowpox virus (CPXV))
[2] = biological target: T2, VARV B7 (variola virus (VARV))
[3] = biological target: T3, VACV B5 (vaccinia virus (VACV), UniProt Q01227 18-317)
[4] = biological target: T1, CPXV CPXV199; remark: listed apart in the source
[5] = biological target: MPXV B6 protein (monkeypox virus (MPXV))
[6] = biological target: T2, VARV B7; remark: listed apart in the source
[7] = biological target: T3, VACV B5; remark: listed apart in the source

B1: hMB668 (antibody, V domains shown)
VH: QVQLVQSGAEVKKPGSSVKVSCKSSGGTFSDYAINWVRQAPGQGLEWMGRILPIVGVPNYAQKFQGRVTITADKSSSTAYKEVSGLRSEDTAVYYCARRSGINGHGLDVWGQGTTVIVSS
VL: DIVMTQSPLSLPVTPGEPASISCRSSQSLLNTNGYNYLEWYLHKPGQSPQLLIYLGSHRASGVPDRFSGSGSGTDFTLKISRAEPEDVGVYYCMQTLQTQGYTFGQGTKLEIK
Q: Which results are given for B1?
A: Kd [1]: 27.2 nM; Kd [2]: 15.8 nM; Kd [3]: 3.1 nM; koff [4]: 0.00011 s⁻¹; koff [5]: 7.8e-05 s⁻¹; koff [6]: 5.5e-05 s⁻¹; koff [7]: 8.2e-05 s⁻¹

B2: hMB621 (antibody, V domains shown)
VH: QVQLVQSGGGVVQPGRSLRLSCVASGFSISTYPLHWVRQAPGKGLEWVAVISHDGRNKYYADSVKGRFSISRDNSKNTVYLQMNSLRVEDTAVYYCARAYPYAFDVWGQGTLVTVSS
VL: EIVLTQSPATLSVSPGETATLSCRASQSVRNDLAWYQQKPGQAPRLLIYGASTRASGIPARFSGSGSGTEFTLTISSLQSEDFAIYYCQQYKDWPPWTFGQGTKVEIK
Q: With B2 as the binder, how does the Kd [1] read?
A: 2.6 nM

Q: What about the Kd [2] of the same binder?
A: 5.1 nM

Q: What about the Kd [3] of the same binder?
A: 2.8 nM

Q: And the koff [4]?
A: 0.00011 s⁻¹

Q: And the koff [5]?
A: 9.7e-05 s⁻¹

Q: What about the koff [6] of the same binder?
A: 0.00019 s⁻¹

Q: And the koff [7]?
A: 0.00017 s⁻¹
